Target: E18A DJ-1-FLAG (in HeLa cells) (human) (UniProt Q99497)
Assay: cross-linking; HeLa cells transfected with FLAG-tagged DJ-1, without or with 20 uM CCCP for 7 hrs; cell extracts treated with 100 uM DSS for 10 min; Western blot with anti-FLAG

**Q.** Which results are given for “E18A DJ-1-FLAG (in HeLa cells) (from UniProt Q99497 1-189) (natural protein)”?
**A.** ratio of dimer (cells treated with CCCP): 68.7; ratio of dimer (cells without CCCP): 57.2

— publication PMC3542337
